Test results published in patent publication US9228015B2, “Nogo receptor antagonists and methods of increasing neurite outgrowth” (Biogen Idec MA Inc., priority 2006, dated 2016).

Legend:
[1] = system: chick dorsal root ganglion neurons, myelin-induced neurite outgrowth inhibition; experiment: Neurite outgrowth of embryonic day 13 chick DRG neurons on myelin (Example 29); assay type: cell-based; settings: 8 μM NgR(310)ecto-Fc; MP 10 μg/nl as printed
Experimental: In investigating combined treatment with methyprednisolone (MP) and NgR(310)ecto-Fc for spinal cord injury (SCI), we sought to verify that these reagents have independent mechanisms of action. Briefly, myelin was dried overnight in poly-L-lysine-precoated plates (Becton Dickinson, Bedford, Mass., USA) at 80 or 400 ng/well (2.5 and 12.7 ng/mm^2, respectively). Wells were then coated with 10 µg/ml laminin (Calbiochem, La Jolla, Calif., USA) for 1 hour at foom temperature (22-24 C). Embryonic day 13 chick dorsal root ganglion neurons were dissociated and plated for 6-8 hours as previously described (GrandPre et al., 2000; Fournier et al., 2001). Neurons were treated with 8 μM NgR(310)ecto-Fc in the presence or absence of 10 μg/nl MP (Pharmacia, Kalamazoo, Mich., USA) for the entire outgrowth period. Neurons were then fixed and stained with βIII tubulin antibody (Covance, Princeton, N.J., USA) and neurite outgrowth was quantified using an automated cellular imaging and analysis system (Axon Instrument, Union City, Calif.; USA). Neurite outgrowth per cell was normalized to the average of duplicate control wells for each experiment (n=3). […] These in vitro data support the hypothesis that MP and NgR(310)ecto-Fc will enhance SCI recovery in a sequentially effective manner.

[2] = system: rats with dorsal hemisection (CST transection); experiment: Functional recovery after spinal cord transection in rats (BBB, stride length; Example 30); assay type: in vivo, rat
Experimental: Briefly, female Long Evans rats (7 weels old; Charles River, Wilmington, Mass., USA) were anesthetized using 25 mg/kg midazolam i.p. (Abott Laboratories, Chicago, Ill., USA) and 2-3% fluothane (Baxter, Deerfield, Ill., USA) in O2 and a dorsal laminectomy performed at spinal level T6 and T7. General anesthesia wa maintained at 1.5-2% fluothane in O2 A dorsal hemisection was performed completely interrupting the main dorsomedial and the mino dorsplateral corticospinal tract (CST) components. A microscapel was used to sterotaxically transect the cord at a depth of 1.8 mm from the surface of the cord. Immediately after CST transection, an intrathecal catheter was inserted into the subarachnoid space at T7 and connected to a primed mini-osmotic pump inserted into the subcutaneous space. […] Functional recovery was assessed using the BBB openfield scoring method (Basso et al., J. Neurotrauma 12:1-21 (1995)) the following day and weekly thereafter.
A discriminating point on the BBB score is a score of 14, corresponding to consistent weight supported planter steps and consistent hindlimb-forelimb coordination.

[3] = system: rats with CST transection; experiment: BDA-labeled axon counts caudal to spinal cord transection in rats (Example 31); assay type: in vivo, rat; settings: 15 mm caudal to the injury site
Experimental: Treatment with NgR(310)ecto-Fc or combined treatment with MP and NgR(310)ecto-Fc enhanced axonal plasticity/regeneration after spinal cord transection. Briefly, for histological tracing of the CSTs, 2 weeks after CST transection animals were re-anesthetized and an incision made in the scalp. The area around the skin incision was injected with a local anesthetic, the left sensorimotor cortex exposed via a craniotomy and 7 μL 10% biotin dextran amine (BDA; 10,000 MW; Molecular Probes, Eugene, Oreg., USA) in PBS injected using a nanoliter injector and micro4 controller at 12 points 0-3.5 mm posterior to Bregma and […] lateral to the midline at a depth of 1 mm below the surface of the cortex. In some instances, the CST was labeled bilaterally using the same procedure.
At 28 days after CST transection, the rats were anesthetized with inactin (100-110 mg/kg i.p.) and transcardially perfused with heparinized saline (100 ml, 10 iu heparin) followed by 4% paraformaldehyde (150 ml). […]
Frozen sections (50 μm) were serially cut and stained with strepavidin-conjugated AlexaFluor-594 (1:200; Molecular Probes) to visualize labeled CST axons. […] Every eighth section, i.e., sections 400 μm apart, was counted for each animal at each level of the cord and the values were expressed as mean number of axons per section.

B1: NgR(310)ecto-Fc: ectodomain of the rat NgR1 (27-310) fused to a rat IgG (protein)
chain: PCPGACVCYNEPKVTTSRPQQGLQAVPAGIPASSQRIFLHGNRISYVPAASFQSCRNLTILWLHSNALAGIDAAAFTGLTLLEQLDLSDNAQLRVVDPTTFRGLGHLHTLHLDRCGLQELGPGLFRGLAALQYLYLQDNNLQALPDNTFRDLGNLTHLFLHGNRIPSVPEHAFRGLHSLDRLLLHQNHVARVHPHAFRDLGRLMTLYLFANNLSMLPAEVLVPLRSLQYLRLNDNPWVCDCRARPLWAWLQKFRGSSSGVPSNLPQRLAGRDLKRLATSDLEGCA
modifications: left off: a dimerising Fc or GST
notes: ectodomain of the rat NgR1 (27-310) fused to a rat IgG
- effect on neurite outgrowth on a myelin substrate [1]: reverse the inhibition
- BBB scores normalized to day 2 ([2]; 2, 3 and 4 weeks after SCI): significant improvement
- mean stride length vs controls ([2]; 4 weeks after SCI): significantly improved
- Mean BBB score ([2]; after 4 weeks): 14.8±0.24
- frequency of rats with BBB score of 14 or greater (consistent plantar stepping and coordinated movement) ([2]; by 4 weeks): 100%
- number of BDA-labeled axons [3]: significantly greater numbers
